# Measured values taken from IntAct's records for PubMed 26601939.
# B1: Syndecan-2 (Rattus norvegicus (Rat)), P34900 (parent)
# chain: MQRAWILLTLGLMACVSAETRAELTSDKDMYLDSSSIEEASGLYPIDDDDYSSASGSGAYEDKGSPDLTTSQLIPRISLTSAAPEVETMTLKTQSITPTQTESPEETDKKEFEISEAEEKQDPAVKSTDVYTEKHSDNLFKRTEVLAAVIAGGVIGFLFAIFLILLLVYRMRKKDEGSYDLGERKPSSAAYQKAPTKEFYA
# B2: Syndecan-4 (Rattus norvegicus (Rat)), P34901 (parent)
# chain: MAPVCLFAPLLLLLLGGFPVAPGESIRETEVIDPQDLLEGRYFSGALPDDEDAGGLEQDSDFELSGSGDLDDTEEPRTFPEVISPLVPLDNHIPENAQPGIRVPSEPKELEENEVIPKRVPSDVGDDDVSNKVSMSSTSQGSNIFERTEVLAALIVGGVVGILFAVFLILLLVYRMKKKDEGSYDLGKKPIYKKAPTNEFYA
# B3: Syndecan-4 (Rattus norvegicus (Rat)), P34901 (parent)
# chain: B2 chain
# partner: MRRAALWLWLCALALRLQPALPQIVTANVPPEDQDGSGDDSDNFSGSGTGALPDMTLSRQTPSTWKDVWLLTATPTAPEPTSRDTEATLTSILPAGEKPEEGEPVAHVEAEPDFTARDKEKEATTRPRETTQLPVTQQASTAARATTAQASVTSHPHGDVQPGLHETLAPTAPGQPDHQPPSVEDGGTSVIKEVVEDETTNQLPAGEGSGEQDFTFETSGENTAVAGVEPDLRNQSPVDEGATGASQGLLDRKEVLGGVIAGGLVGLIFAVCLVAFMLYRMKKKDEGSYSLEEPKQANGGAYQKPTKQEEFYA
# B4: Syndecan-1 (Rattus norvegicus (Rat)), P26260 (parent)
# chain: B3 partner
# partner: B1 chain
# B5: Syndecan-4 (Rattus norvegicus (Rat)), P34901 (parent)
# chain: B2 chain
# partner: B1 chain
# B6: Syndecan-2 (Rattus norvegicus (Rat)), P34900 (parent)
# chain: B1 chain
# partner: B2 chain
# B7: Syndecan-2 (Rattus norvegicus (Rat)), P34900 (parent)
# chain: B1 chain
# partner: B3 partner
# Variants of: B1
# Details: with sdc3_rat Sdc3, P33671
# Chain of sdc3_rat Sdc3, P33671 (P33671 whole entry): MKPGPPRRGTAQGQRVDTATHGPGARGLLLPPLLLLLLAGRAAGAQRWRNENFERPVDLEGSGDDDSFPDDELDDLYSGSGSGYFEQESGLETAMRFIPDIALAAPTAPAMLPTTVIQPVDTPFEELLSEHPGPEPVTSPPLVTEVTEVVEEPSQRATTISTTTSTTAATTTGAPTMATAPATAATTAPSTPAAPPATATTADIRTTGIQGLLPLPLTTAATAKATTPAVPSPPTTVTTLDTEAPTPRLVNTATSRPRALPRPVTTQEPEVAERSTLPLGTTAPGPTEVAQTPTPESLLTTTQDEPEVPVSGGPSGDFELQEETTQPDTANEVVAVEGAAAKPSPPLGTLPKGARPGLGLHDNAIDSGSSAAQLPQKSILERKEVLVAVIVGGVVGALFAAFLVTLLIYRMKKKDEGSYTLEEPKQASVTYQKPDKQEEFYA
row,Variant,effect of a mutation on the interaction
1,MQRAWILLTLGLMACVSAETRAELTSDKDMYLDSSSIEEASGLYPIDDDDYSSASGSGAYEDKGSPDLTTSQLIPRISLTSAAPEVETMTLKTQSITPTQTESPEETDKKEFEISEAEEKQDPAVKSTDVYTEKHSDNLFKRTEVLAAVIAGGVIGFLYAIFLILLLVYRMRKKDEGSYDLGERKPSSAAYQKAPTKEFYA [F159Y],decreasing interaction strength

# Variants of: B2
# Details: with sdc3_rat Sdc3, P33671
row,Variant,effect of a mutation on the interaction
1,MAPVCLFAPLLLLLLGGFPVAPGESIRETEVIDPQDLLEGRYFSGALPDDEDAGGLEQDSDFELSGSGDLDDTEEPRTFPEVISPLVPLDNHIPENAQPGIRVPSEPKELEENEVIPKRVPSDVGDDDVSNKVSMSSTSQGSNIFERTEVLAALIVGGVVGILYAVFLILLLVYRMKKKDEGSYDLGKKPIYKKAPTNEFYA [F164Y],decreasing interaction strength

# Variants of: B3
# Details: with sdc1_rat Sdc1, P26260
row,Variant,effect of a mutation on the interaction
1,MAPVCLFAPLLLLLLGGFPVAPGESIRETEVIDPQDLLEGRYFSGALPDDEDAGGLEQDSDFELSGSGDLDDTEEPRTFPEVISPLVPLDNHIPENAQPGIRVPSEPKELEENEVIPKRVPSDVGDDDVSNKVSMSSTSQGSNIFERTEVLAALIVGGVVGILYAVFLILLLVYRMKKKDEGSYDLGKKPIYKKAPTNEFYA [F164Y],decreasing interaction strength

# Variants of: B4
# Details: with sdc2_rat Sdc2, P34900
row,Variant,effect of a mutation on the interaction
1,MRRAALWLWLCALALRLQPALPQIVTANVPPEDQDGSGDDSDNFSGSGTGALPDMTLSRQTPSTWKDVWLLTATPTAPEPTSRDTEATLTSILPAGEKPEEGEPVAHVEAEPDFTARDKEKEATTRPRETTQLPVTQQASTAARATTAQASVTSHPHGDVQPGLHETLAPTAPGQPDHQPPSVEDGGTSVIKEVVEDETTNQLPAGEGSGEQDFTFETSGENTAVAGVEPDLRNQSPVDEGATGASQGLLDRKEVLGGVIAGGLVGLIFAVFLVAFMLYRMKKKDEGSYSLEEPKQANGGAYQKPTKQEEFYA [C272F],with no effect
2,MRRAALWLWLCALALRLQPALPQIVTANVPPEDQDGSGDDSDNFSGSGTGALPDMTLSRQTPSTWKDVWLLTATPTAPEPTSRDTEATLTSILPAGEKPEEGEPVAHVEAEPDFTARDKEKEATTRPRETTQLPVTQQASTAARATTAQASVTSHPHGDVQPGLHETLAPTAPGQPDHQPPSVEDGGTSVIKEVVEDETTNQLPAGEGSGEQDFTFETSGENTAVAGVEPDLRNQSPVDEGATGASQGLLDRKEVLGGVIAGGLVGLIYAVFLVAFMLYRMKKKDEGSYSLEEPKQANGGAYQKPTKQEEFYA [F269Y;C272F],disrupting interaction strength
3,MRRAALWLWLCALALRLQPALPQIVTANVPPEDQDGSGDDSDNFSGSGTGALPDMTLSRQTPSTWKDVWLLTATPTAPEPTSRDTEATLTSILPAGEKPEEGEPVAHVEAEPDFTARDKEKEATTRPRETTQLPVTQQASTAARATTAQASVTSHPHGDVQPGLHETLAPTAPGQPDHQPPSVEDGGTSVIKEVVEDETTNQLPAGEGSGEQDFTFETSGENTAVAGVEPDLRNQSPVDEGATGASQGLLDRKEVLGGVIAGGLVGLIYAVCLVAFMLYRMKKKDEGSYSLEEPKQANGGAYQKPTKQEEFYA [F269Y],disrupting interaction strength

# Variants of: B5
# Details: with sdc2_rat Sdc2, P34900
row,Variant,effect of a mutation on the interaction
1,MAPVCLFAPLLLLLLGGFPVAPGESIRETEVIDPQDLLEGRYFSGALPDDEDAGGLEQDSDFELSGSGDLDDTEEPRTFPEVISPLVPLDNHIPENAQPGIRVPSEPKELEENEVIPKRVPSDVGDDDVSNKVSMSSTSQGSNIFERTEVLAALIVGGVVGILYAVFLILLLVYRMKKKDEGSYDLGKKPIYKKAPTNEFYA [F164Y],decreasing interaction strength

# Variants of: B6
# Details: with sdc4_rat Sdc4, P34901
row,Variant,effect of a mutation on the interaction
1,MQRAWILLTLGLMACVSAETRAELTSDKDMYLDSSSIEEASGLYPIDDDDYSSASGSGAYEDKGSPDLTTSQLIPRISLTSAAPEVETMTLKTQSITPTQTESPEETDKKEFEISEAEEKQDPAVKSTDVYTEKHSDNLFKRTEVLAAVIAGGVIGYLFAIFLILLLVYRMRKKDEGSYDLGERKPSSAAYQKAPTKEFYA [F157Y],disrupting interaction strength
2,MQRAWILLTLGLMACVSAETRAELTSDKDMYLDSSSIEEASGLYPIDDDDYSSASGSGAYEDKGSPDLTTSQLIPRISLTSAAPEVETMTLKTQSITPTQTESPEETDKKEFEISEAEEKQDPAVKSTDVYTEKHSDNLFKRTEVLAAVIAGGVIGFLFAIYLILLLVYRMRKKDEGSYDLGERKPSSAAYQKAPTKEFYA [F162Y],with no effect
3,MQRAWILLTLGLMACVSAETRAELTSDKDMYLDSSSIEEASGLYPIDDDDYSSASGSGAYEDKGSPDLTTSQLIPRISLTSAAPEVETMTLKTQSITPTQTESPEETDKKEFEISEAEEKQDPAVKSTDVYTEKHSDNLFKRTEVLAAVIAGGVIGFLYAIFLILLLVYRMRKKDEGSYDLGERKPSSAAYQKAPTKEFYA [F159Y],decreasing interaction strength

# Variants of: B6
# Details: with sdc4_rat Sdc4, P34901
# Remark: another data set of the same source
row,Variant,effect of a mutation on the interaction
1,MQRAWILLTLGLMACVSAETRAELTSDKDMYLDSSSIEEASGLYPIDDDDYSSASGSGAYEDKGSPDLTTSQLIPRISLTSAAPEVETMTLKTQSITPTQTESPEETDKKEFEISEAEEKQDPAVKSTDVYTEKHSDNLFKRTEVLAAVIAGGVIGFLYAIFLILLLVYRMRKKDEGSYDLGERKPSSAAYQKAPTKEFYA [F159Y],decreasing interaction

# Variants of: B6
# Details: with sdc4_rat Sdc4, P34901
# Remark: another data set of the same source
row,Variant,effect of a mutation on the interaction
1,MQRAWILLTLGLMACVSAETRAELTSDKDMYLDSSSIEEASGLYPIDDDDYSSASGSGAYEDKGSPDLTTSQLIPRISLTSAAPEVETMTLKTQSITPTQTESPEETDKKEFEISEAEEKQDPAVKSTDVYTEKHSDNLFKRTEVLAAVIAGGVIGFLYAIFLILLLVYRMRKKDEGSYDLGERKPSSAAYQKAPTKEFYA [F159Y],disrupting interaction strength

# Variants of: B7
# Details: with sdc1_rat Sdc1, P26260
row,Variant,effect of a mutation on the interaction
1,MQRAWILLTLGLMACVSAETRAELTSDKDMYLDSSSIEEASGLYPIDDDDYSSASGSGAYEDKGSPDLTTSQLIPRISLTSAAPEVETMTLKTQSITPTQTESPEETDKKEFEISEAEEKQDPAVKSTDVYTEKHSDNLFKRTEVLAAVIAGGVIGFLFAIYLILLLVYRMRKKDEGSYDLGERKPSSAAYQKAPTKEFYA [F162Y],with no effect
